Test results from patent US20250313634A1 (WUXI BIOLOGICS SHANGHAI, published 2025).

Experiments:
Test in all cases: capture ELISA on coated 1.14.4; relative to silent alanine substitutions
[1] = target: T1, hPD-L1_ECD.His point mutant F191A (human, UniProt Q9NZQ7 19-238)
T1 construct: extracellular domain
Summary of the method: (§1)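 Capture ELISA in which supernatant containing quantified PD-L1 alanine mutant was detected with HRP anti-His antibody. Absorbance was normalized to the average of control mutants. Epitope residues were called at binding fold change <0.55.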

[2] = target: T2, hPD-L1_ECD.His point mutant G110A (human, UniProt Q9NZQ7 19-238)
T2 construct: extracellular domain
T2 sequence (Q9NZQ7 19-238 G110A): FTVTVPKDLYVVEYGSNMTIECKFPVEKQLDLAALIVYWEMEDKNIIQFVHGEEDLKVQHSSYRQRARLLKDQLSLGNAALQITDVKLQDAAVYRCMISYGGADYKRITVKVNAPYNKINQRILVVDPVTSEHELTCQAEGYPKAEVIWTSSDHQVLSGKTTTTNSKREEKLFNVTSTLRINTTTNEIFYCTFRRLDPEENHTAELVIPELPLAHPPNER
Summary of the method: as §1

[3] = target: T3, hPD-L1_ECD.His point mutant L106A (human, UniProt Q9NZQ7 19-238)
T3 construct: extracellular domain
T3 sequence (Q9NZQ7 19-238 L106A): as the sequence (Q9NZQ7 19-238 G110A) above, with L88A, A92G counted along it
Summary of the method: as §1

[4] = target: T4, hPD-L1_ECD.His point mutant P161A (human, UniProt Q9NZQ7 19-238)
T4 construct: extracellular domain
T4 sequence (Q9NZQ7 19-238 P161A): as the sequence (Q9NZQ7 19-238 G110A) above, with A92G, P143A counted along it
Summary of the method: as §1

[5] = target: T5, hPD-L1_ECD.His point mutant L175A (human, UniProt Q9NZQ7 19-238)
T5 construct: extracellular domain
T5 sequence (Q9NZQ7 19-238 L175A): as the sequence (Q9NZQ7 19-238 G110A) above, with A92G, L157A counted along it
Summary of the method: as §1

[6] = target: T6, hPD-L1_ECD.His point mutant N63A (human, UniProt Q9NZQ7 19-238)
T6 construct: extracellular domain
T6 sequence (Q9NZQ7 19-238 N63A): as the sequence (Q9NZQ7 19-238 G110A) above, with N45A, A92G counted along it
Summary of the method: as §1

[7] = target: T7, hPD-L1_ECD.His point mutant R113A (human, UniProt Q9NZQ7 19-238)
T7 construct: extracellular domain
T7 sequence (Q9NZQ7 19-238 R113A): as the sequence (Q9NZQ7 19-238 G110A) above, with A92G, R95A counted along it
Summary of the method: as §1

[8] = target: T8, hPD-L1_ECD.His point mutant Q66A (human, UniProt Q9NZQ7 19-238)
T8 construct: extracellular domain
T8 sequence (Q9NZQ7 19-238 Q66A): as the sequence (Q9NZQ7 19-238 G110A) above, with Q48A, A92G counted along it
Summary of the method: as §1

[9] = target: T9, hPD-L1_ECD.His point mutant S169A (human, UniProt Q9NZQ7 19-238)
T9 construct: extracellular domain
T9 sequence (Q9NZQ7 19-238 S169A): as the sequence (Q9NZQ7 19-238 G110A) above, with A92G, S151A counted along it
Summary of the method: as §1

[10] = target: T10, hPD-L1_ECD.His point mutant D73A (human, UniProt Q9NZQ7 19-238)
T10 construct: extracellular domain
T10 sequence (Q9NZQ7 19-238 D73A): as the sequence (Q9NZQ7 19-238 G110A) above, with D55A, A92G counted along it
Summary of the method: as §1

[11] = target: T11, hPD-L1_ECD.His point mutant S79A (human, UniProt Q9NZQ7 19-238)
T11 construct: extracellular domain
T11 sequence (Q9NZQ7 19-238 S79A): as the sequence (Q9NZQ7 19-238 G110A) above, with S61A, A92G counted along it
Summary of the method: as §1

[12] = target: T12, hPD-L1_ECD.His point mutant S117A (human, UniProt Q9NZQ7 19-238)
T12 construct: extracellular domain
T12 sequence (Q9NZQ7 19-238 S117A): as the sequence (Q9NZQ7 19-238 G110A) above, with A92G, S99A counted along it
Summary of the method: as §1

[13] = target: T13, hPD-L1_ECD.His point mutant Y28A (human, UniProt Q9NZQ7 19-238)
T13 construct: extracellular domain
T13 sequence (Q9NZQ7 19-238 Y28A): as the sequence (Q9NZQ7 19-238 G110A) above, with Y10A, A92G counted along it
Summary of the method: as §1

[14] = target: T14, hPD-L1_ECD.His point mutant S34A (human, UniProt Q9NZQ7 19-238)
T14 construct: extracellular domain
T14 sequence (Q9NZQ7 19-238 S34A): as the sequence (Q9NZQ7 19-238 G110A) above, with S16A, A92G counted along it
Summary of the method: as §1

[15] = target: T15, hPD-L1_ECD.His point mutant E205A (human, UniProt Q9NZQ7 19-238)
T15 construct: extracellular domain
T15 sequence (Q9NZQ7 19-238 E205A): as the sequence (Q9NZQ7 19-238 G110A) above, with A92G, E187A counted along it
Summary of the method: as §1

[16] = target: T16, hPD-L1_ECD.His point mutant T22A (human, UniProt Q9NZQ7 19-238)
T16 construct: extracellular domain
T16 sequence (Q9NZQ7 19-238 T22A): as the sequence (Q9NZQ7 19-238 G110A) above, with T4A, A92G counted along it
Summary of the method: as §1

[17] = target: T17, hPD-L1_ECD.His point mutant I54A (human, UniProt Q9NZQ7 19-238)
T17 construct: extracellular domain
T17 sequence (Q9NZQ7 19-238 I54A): as the sequence (Q9NZQ7 19-238 G110A) above, with I36A, A92G counted along it
Summary of the method: as §1

[18] = target: T18, hPD-L1_ECD.His point mutant T196A (human, UniProt Q9NZQ7 19-238)
T18 construct: extracellular domain
T18 sequence (Q9NZQ7 19-238 T196A): as the sequence (Q9NZQ7 19-238 G110A) above, with A92G, T178A counted along it
Summary of the method: as §1

[19] = target: T19, hPD-L1_ECD.His point mutant G120A (human, UniProt Q9NZQ7 19-238)
T19 construct: extracellular domain
T19 sequence (Q9NZQ7 19-238 G120A): as the sequence (Q9NZQ7 19-238 G110A) above, with A92G, G102A counted along it
Summary of the method: as §1

[20] = target: T20, hPD-L1_ECD.His point mutant E45A (human, UniProt Q9NZQ7 19-238)
T20 construct: extracellular domain
T20 sequence (Q9NZQ7 19-238 E45A): as the sequence (Q9NZQ7 19-238 G110A) above, with E27A, A92G counted along it
Summary of the method: as §1

[21] = target: T21, hPD-L1_ECD.His point mutant Y81A (human, UniProt Q9NZQ7 19-238)
T21 construct: extracellular domain
T21 sequence (Q9NZQ7 19-238 Y81A): as the sequence (Q9NZQ7 19-238 G110A) above, with Y63A, A92G counted along it
Summary of the method: as §1

[22] = target: T22, hPD-L1_ECD.His point mutant D103A (human, UniProt Q9NZQ7 19-238)
T22 construct: extracellular domain
T22 sequence (Q9NZQ7 19-238 D103A): as the sequence (Q9NZQ7 19-238 G110A) above, with D85A, A92G counted along it
Summary of the method: as §1

T1 sequence (Q9NZQ7 19-238 F191A): as the sequence (Q9NZQ7 19-238 G110A) above, with A92G, F173A counted along it

B1: 1.14.4 (antibody, V domains shown)
VH: EVQLLESGGGLVQPGGSLRLSCAASGFTFSSYAMSWVRQAPGKGLEWVSGISGSGGFTYYADSVKGRFTISRDNSKNTLYLQMNSLRAEDTAVYYCAKPPRGYNYGPFDYWGQGTLVTVSS
VL: SYVLTQPPSVSVAPGQTARITCGGNNIGSKSVHWYQQKPGQAPVLVVYDDSDRPSGIPERFSGSNSGNTATLTISRVEAGDEADYYCQVWDSSSDHVVFGGGTKLTVL
notes: Fully human monoclonal antibody with a human constant region of IgG4 isotype
[1]
  fold change: 0.897 fold
[2]
  fold change: 0.632 fold
[3]
  fold change: 0.732 fold
[4]
  fold change: 0.332 fold
[5]
  fold change: 0.842 fold
[6]
  fold change: 0.285 fold
[7]
  fold change: 0.161 fold
[8]
  fold change: 0.979 fold
[9]
  fold change: 0.939 fold
[10]
  fold change: 0.988 fold
[11]
  fold change: 0.962 fold
[12]
  fold change: 0.935 fold
[13]
  fold change: 0.842 fold
[14]
  fold change: 0.813 fold
[15]
  fold change: 0.801 fold
[16]
  fold change: 0.875 fold
[17]
  fold change: 0.918 fold
[18]
  fold change: 0.898 fold
[19]
  fold change: 0.895 fold
[20]
  fold change: 0.942 fold
[21]
  fold change: 0.692 fold
[22]
  fold change: 0.863 fold
